In the RNAGym collection of RNA variant scans (doi:10.1073/pnas.2313332121):

B1: TPR t1 (parent)
chain: GACCAAUCUGCCCUCAGAGCUCGAGAACAUCUUCGGAUGCAGAGGAGGCAGGCUUCGGUGGCGCGAUAGCGCCAACGUCCUCAACCUCCAAUGCAUCCCACCACAUGAUGAUGCCUGAAGAGCCUUGGUUUUUUG

Variants of: B1
Assay: polymerase ribozyme fitness, log enrichment relative to wild type (log ratio); higher = more active; in vitro selection for triplet polymerase activity
Outline: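 A heterodimeric triplet polymerase ribozyme had each of its subunits mutagenized by PCR into a library, which was transcribed. One round of in vitro selection, done in triplicate, annealed each library with a biotinylated primer, its partner subunit and triplets, then incubated it frozen at −7 °C before gel excision of extended constructs, streptavidin-bead capture and RT-PCR. Fitness is the logarithm of genotype enrichment relative to wild-type enrichment, based on Illumina sequencing of inputs and outputs and inverse-variance-weighted replicate averages. A base-2 logarithm is used, and genotypes were kept only with ≥10 input reads and ≥1 read per output.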

| Variant | polymerase ribozyme fitness (log ratio) |
| --- | --- |
| C72U U78C A83C | -0.433 |
| C72U G110A U130A | -1.72 |
| C73A G117C | -2.37 |
| C73A U131G | -0.242 |
| C72U G93U C115U | -2.06 |
| C73A C97A | -4.87 |
| C73A C102U | -0.943 |
| C73A G93A | -1.04 |
| C73A C85A G117A A119G U133C G135C | -0.124 |
| C72U U78C U81A A83G | -1.17 |
| C72U G117C G120U U131G | -5.53 |
| C72U G93C | -0.856 |
| C72U G127C U132C | -1.97 |
| C72U C85A | -1.82 |
| C73G A118U | -0.0973 |
| C72U C101G C115U | -3.38 |
| C73A G120C | 1.81 |
| C72U C94U G127U | -1.75 |
| C73G A100C | -1.47 |
| C72U U109G | -4.62 |
| C72U A121U | 1.5 |

| Variant | polymerase ribozyme fitness (log ratio) |
| --- | --- |
| C72U A121G | 0.744 |
| C72U C114U C115U | -7 |
| C73A U87C A105U | -1.35 |
| C73A C86U U87A G117A U132A | -3.67 |
| C72U C102G U133A | -5.27 |
| C72U U116C | -0.368 |
| C72U U116G | -2.57 |
| C73A C79G U112A | -0.66 |
| C73A G110C U125A U129A | -6.92 |
| C72U C94U | -0.599 |
| C72U G127U | -1.84 |
| C72U G127C | -1.75 |
| C73G C80U | -1.77 |
| C73A C94U | 0.44 |
| C72U U81A A91U A118U | -3.42 |
| C72U U112A G120C | 0.504 |
| C72U C94G U132A | -1.02 |
| C73G A91G | -2.69 |
| C72U C97G | -4.65 |
| C72U C97A | -5.06 |
| C72U U106A | 0.0802 |

| Variant | polymerase ribozyme fitness (log ratio) |
| --- | --- |
| C73G A111C | -0.327 |
| C72U G110C G128U | -6.47 |
| C72U C102A G128A | -4.14 |
| C72U C80A | -5.24 |
| C72U C80U | -1.08 |
| C73A A90U | -3.12 |
| C72U C80U C82A U129G | -2.75 |
| C73A A95G C104A G110U | -3.5 |
| C72U U130G | -0.892 |
| C72U U130C | -0.237 |
| C72U U130A | -1.42 |
| C72U C73A A83U U109A | -5.82 |
| C72U C85A A105U | -3.17 |
| C72U U78C A83U A90G A121G | 1.89 |
| C72U C98U U131C | -1.05 |
| C72U C94G G110C | -5.81 |
| C73A C99U | -2.77 |
| C72U G110A G113A | -4.61 |
| C72U U81G | -3.35 |
| C72U G135U | -1.38 |
| C72U C114A | -1.67 |

| Variant | polymerase ribozyme fitness (log ratio) |
| --- | --- |
| C73A G110A G120A | -1.61 |
| C72U U132G G135U | -0.759 |
| C72U C88G | -0.779 |
| C72U C88A | 0.024 |
| C72U C88U | 0.0321 |
| C73A A90G G107A G117U | -6.33 |
| C72U G113A U126A | -2.61 |
| C72U U96G U106A G113A | -2.89 |
| C73G A74U C89U | -2.48 |
| C73G C82A A90U C123G | -0.559 |
| C72U G77U A100C A118U U129C | -2.77 |
| C72U U96C | -1.2 |
| C72U U78C C82G C101A A121C | -0.0659 |
| C73G A121C G122A | 0.495 |
| C72U U96A A118G | -1.7 |
| C72U C94G C101A | -2.57 |
| C72U G113U G120U U130C | -3.5 |
| C72U C76A C98U | -1.75 |
| C72U C79A | -3.07 |
| C73A C94U U130A | -0.716 |
